In publication PMC5660060:

T1: MSMEG_3765 (TetR3765) (Mycobacterium smegmatis mc2155) (UniProt A0QYS0)
T1 sequence: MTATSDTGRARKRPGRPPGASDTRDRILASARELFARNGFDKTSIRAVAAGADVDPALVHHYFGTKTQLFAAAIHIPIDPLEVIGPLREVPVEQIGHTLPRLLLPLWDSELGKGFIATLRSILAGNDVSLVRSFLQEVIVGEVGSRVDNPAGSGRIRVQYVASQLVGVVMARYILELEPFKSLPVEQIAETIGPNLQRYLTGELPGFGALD

T2: MSMEG_3765 (TetR3765) (Mycobacterium smegmatis mc2155, UniProt A0QYS0 1-211)
T2 sequence: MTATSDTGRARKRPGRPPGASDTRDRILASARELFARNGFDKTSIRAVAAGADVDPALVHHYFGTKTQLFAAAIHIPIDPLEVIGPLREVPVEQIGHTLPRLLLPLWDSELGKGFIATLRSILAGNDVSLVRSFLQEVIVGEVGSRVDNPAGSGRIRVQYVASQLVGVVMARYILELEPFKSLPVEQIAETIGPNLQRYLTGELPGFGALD


molecular target: T1, MSMEG_3765 (TetR3765) (Mycobacterium smegmatis mc2155); experiment: EMSA; details: 40 mM HEPES pH 8.0, 150 mM NaCl, 20 mM MgCl2, 10% glycerol, 37 C, 20 min; 8% native PAGE, SYBR Safe

Row | Molecule | binding
1 | CCGGATCCGACCTCGACCACCATCGCACGCACACCCCGTCCGGCAATAGTTGCGCCGAGCAGCCGATGCGCGGCCGCGACCGGGTCGATCGCCAGTTCCTCAGCGTTCATCAGAGACGATTGTGCACCGGCCCTTGACAAACCCGCACGACTGGCGGATATTCATCACATGATGATTTCATCAAGTGATGAATTACTTCGCGACGGTGGGGCCCG (double strand) [Rv1687c upstream fragment 200 bp] | binds
2 | CGGGATCCGATCCTGCGGGGCGCCGACGACCACACGCTGTCGCTGATCACCGAGTACGTCGACGTCGCACGGTTGCGGGCCGACATTATCGGCCTGCTGGAGTCCGCCGCCTGAGCCAGGCGTCGCCGACGCCGAAATGTGTCGACGCATCGTCTTCCCACCGGACGACGGCAGGCCTAGAATTCATTGC (double strand) [fragment b 182 bp] | no binding
3 | CGGGATCCGATCCTGCGGGGCGCCGACGACCACACGCTGTCGCTGATCACCGAGTACGTCGACGTCGCACGGTTGCGGGCCGACATTATCGGCCTGCTGGAGTCCGCCGCCTGAGCCAGGCGTCGCCGACGCCGAAATGTGTCGACGCATCGTCTTCCCACCGGACGACGGCAGGCCTAGAATTCATTGCATGATGACTTCATCGCGCGATGAATTGTCAGCGACGGGGCCCG (double strand) [MSMEG_3762 upstream fragment 218 bp] | binds
4 | CGGGCCCGATCCACGCTGGCCATGGCATCGGTGGTCGGTTCGTCGCTCATGTCGTCAAGTTAGCTTGACGACATGAGCGGCGTCAAGAAAACTTGACACAAAAGGAACAGGCACAATCGCATCGATGAGCGTCGACCTGCTGACCGGTGATCCGATCGCCGCGGCACGTCGGCTGATCGGCGCCCACCTCGTCGGGCGGGACGTCACCGCCACGATCGTCGAGGTCGAGGCCTACGGCGGACCGCCGGACGGCCCGTGGCCGGACGCGGCGTCGCATTCGTTCCGGATCCCG (double strand) [MSMEG_3760 upstream fragment (from GFP assay) 277 bp] | no binding
5 | CTGCTGGAGTCCGCCGCCTGAGCCAGGCGTCGCCGACGCCGAAATGTGTCGACGCATCGTCTTCCCACCGGACGACGGCAGGCCTAGAATTCATTGC (double strand) [fragment c 97 bp] | no binding
6 | CTGCTGGAGTCCGCCGCCTGAGCCAGGCGTCGCCGACGCCGAAATGTGTCGACGCATCGTCTTCCCACCGGACGACGGCAGGCCTAGAATTCATTGCATGATGACTTCATCGCGCGATGAATTGTCAGCGACGGGGCCCG (double strand) [fragment a 133 bp] | binds
7 | GACGCTCATCGATGCGATTGTGCCTGTTCCTTTTGTGTCAAGTTTTCTTGACGCCGCTCATGTCGTCAAGCTAACTTGACGACATGAGCGACGAACCGACCACCGATGCCATGGCCAGCGTGGATCGGGCCCG (double strand) [MSMEG_3760 upstream fragment 127 bp (negative control)] | no binding

molecular target: T2, MSMEG_3765 (TetR3765); experiment: EMSA; 1.5-20 pmol protein; 40 mM HEPES pH 8.0, 150 mM NaCl, 20 mM MgCl2, 10% glycerol, 37 C, 20 min; 8% native PAGE, SYBR Safe; details: protein: recombinant; tags: C-terminal His (pET-22b(+), NdeI-XhoI); chain copies: 2

Row | Molecule | binding result
8 | fragment d 36 bp TetR motif (dsDNA) DNA 1: AATTCATTGCATGATGACTTCATCGCGCGATGAATT DNA 2: AATTCATCGCGCGATGAAGTCATCATGCAATGAATT | binds
